Data as given in patent US20180030151A1 (MOGAM INSTITUTE FOR BIOMEDICAL RESEARCH, published 2018).
Residue numbers refer to the chain shown, from its start. Where two headings read alike, the source gives them in different places.

Columns and labels:
Test in all cases: cell-based or functional assay
[1] = biological target: T1, recombinant human TFPI (tissue factor pathway inhibitor) (human, UniProt P10646 29-304)
[2] = biological target: T1, recombinant human TFPI (tissue factor …); remark: listed apart in the source
[3] = biological target: T1, recombinant human TFPI (tissue factor …); remark: listed apart in the source
[4] = biological target: T1, recombinant human TFPI (tissue factor …); remark: listed apart in the source
[5] = biological target: T1, recombinant human TFPI (tissue factor …); remark: listed apart in the source
[6] = biological target: T1, recombinant human TFPI (tissue factor …); remark: listed apart in the source

B1: clone 1 (antibody, V domains shown)
VH: EVQLVESGGGLVKPGGSLRLSCAASGFTFSSYAMNWVRQAPGKGLEWVGTITTGGSYTYYADSVDGRFTISRDNAKNSLYLQMNSLRAEDTAVYYCARQDGNFLMDYWGQGTLVTVSS
VL: DVVMTQTPLSLPVTLGQPASISCKSSPSLLDSDGKTYLNWLQQRPGQSPKRLIYLVSKLDSGVPDRFTGSGSGTDFTLKISRVEAEDVGVYYCWQGTHFPFTFGQGTKVEIKR
[1]
  FXa assay % of FXa alone, 2.5 nM Ab, 10 nM TFPI: 6.3%
  FXa assay % of FXa alone, 5 nM Ab, 10 nM TFPI: 17.1%
  FXa assay % of FXa alone, 10 nM Ab, 10 nM TFPI: 50.1%
  FXa assay % of FXa alone, 20 nM Ab, 10 nM TFPI: 72%
  FXa assay OD, 2.5 nM Ab, 10 nM TFPI: 0.048
  FXa assay OD, 5 nM Ab, 10 nM TFPI: 0.131
  FXa assay OD, 10 nM Ab, 10 nM TFPI: 0.381
  FXa assay OD, 20 nM Ab, 10 nM TFPI: 0.548

B2: clone 4287 (antibody, V domains shown)
VH: EVQLVESGGGLVKPGGSLRLSCAASGFTFSKYAMNWFRQAPGKGLEWVSTITTGGSYTYYADSVEGRFTISRDNAKNSLYLQMNSLRAEDTAVYYCARQHPYGNFLMDYWGQGTLVTVSS
VL: B1 VL with P27Q, S32I
[2]
  FXa assay % of FXa alone, 2.5 nM Ab, 10 nM TFPI: 3.4%
  FXa assay % of FXa alone, 5 nM Ab, 10 nM TFPI: 3.5%
  FXa assay % of FXa alone, 10 nM Ab, 10 nM TFPI: 3.3%
  FXa assay % of FXa alone, 20 nM Ab, 10 nM TFPI: 2.5%

B3: clone 1024 (antibody, V domains shown)
VH: B1 VH with N35S, G49S
VL: B1 VL with P27Q, S32L
[3]
  FXa assay % of FXa alone, 2.5 nM Ab, 10 nM TFPI: 4.6%
  FXa assay % of FXa alone, 5 nM Ab, 10 nM TFPI: 6.2%
  FXa assay % of FXa alone, 10 nM Ab, 10 nM TFPI: 20.4%
  FXa assay % of FXa alone, 20 nM Ab, 10 nM TFPI: 42.7%
  FXa assay OD, 2.5 nM Ab, 10 nM TFPI: 0.0225
  FXa assay OD, 5 nM Ab, 10 nM TFPI: 0.03
  FXa assay OD, 10 nM Ab, 10 nM TFPI: 0.0985
  FXa assay OD, 20 nM Ab, 10 nM TFPI: 0.206

B4: clone 1224 (antibody, V domains shown)
VH: B1 VH with N35S, G49S
VL: B1 VL with P27Q, S32I
[2]
  FXa assay % of FXa alone, 2.5 nM Ab, 10 nM TFPI: 5.1%
  FXa assay % of FXa alone, 5 nM Ab, 10 nM TFPI: 6.9%
  FXa assay % of FXa alone, 10 nM Ab, 10 nM TFPI: 29%
  FXa assay % of FXa alone, 20 nM Ab, 10 nM TFPI: 66.1%
  FXa assay OD, 5 nM Ab, 10 nM TFPI: 0.06
  FXa assay OD, 10 nM Ab, 10 nM TFPI: 0.252
  FXa assay OD, 20 nM Ab, 10 nM TFPI: 0.576

B5: clone 7 (antibody, V domains shown)
VH: B1 VH
VL: B1 VL with S32V
[1]
  FXa assay % of FXa alone, 2.5 nM Ab, 10 nM TFPI: 8.9%
  FXa assay % of FXa alone, 5 nM Ab, 10 nM TFPI: 31%
  FXa assay % of FXa alone, 10 nM Ab, 10 nM TFPI: 72.1%
  FXa assay % of FXa alone, 20 nM Ab, 10 nM TFPI: 75.4%
  FXa assay OD, 2.5 nM Ab, 10 nM TFPI: 0.0675
  FXa assay OD, 5 nM Ab, 10 nM TFPI: 0.236
  FXa assay OD, 10 nM Ab, 10 nM TFPI: 0.549
  FXa assay OD, 20 nM Ab, 10 nM TFPI: 0.574

B6: clone 3016 (antibody, V domains shown)
VH: B1 VH with G49S, Y57H, D65E
VL: B1 VL with P27Q, F99L
[4]
  FXa assay % of FXa alone, 2.5 nM Ab, 10 nM TFPI: 3.7%
  FXa assay % of FXa alone, 5 nM Ab, 10 nM TFPI: 4.8%
  FXa assay % of FXa alone, 10 nM Ab, 10 nM TFPI: 6.3%
  FXa assay % of FXa alone, 20 nM Ab, 10 nM TFPI: 14.2%
  FXa assay OD, 20 nM Ab, 10 nM TFPI: 0.102

B7: clone 1238 (antibody, V domains shown)
VH: B1 VH with G49S, D65E, N102H
VL: B1 VL with P27Q, S32V
[2]
  FXa assay % of FXa alone, 2.5 nM Ab, 10 nM TFPI: 4.5%
  FXa assay % of FXa alone, 5 nM Ab, 10 nM TFPI: 13.2%
  FXa assay % of FXa alone, 10 nM Ab, 10 nM TFPI: 5.6%
  FXa assay % of FXa alone, 20 nM Ab, 10 nM TFPI: 63.2%
  FXa assay OD, 2.5 nM Ab, 10 nM TFPI: 0.039
  FXa assay OD, 5 nM Ab, 10 nM TFPI: 0.115
  FXa assay OD, 10 nM Ab, 10 nM TFPI: 0.0485
  FXa assay OD, 20 nM Ab, 10 nM TFPI: 0.55

B8: clone 3131 (antibody, V domains shown)
VH: B1 VH with N35S, G49S, D65Q, N102Q
VL: B1 VL with P27Q, S32I
[5]
  FXa assay % of FXa alone, 2.5 nM Ab, 10 nM TFPI: 6.6%
  FXa assay % of FXa alone, 5 nM Ab, 10 nM TFPI: 7.7%
  FXa assay % of FXa alone, 10 nM Ab, 10 nM TFPI: 14.9%
  FXa assay % of FXa alone, 20 nM Ab, 10 nM TFPI: 61.6%
  FXa assay OD, 10 nM Ab, 10 nM TFPI: 0.115
  FXa assay OD, 20 nM Ab, 10 nM TFPI: 0.474

B9: clone 1104 (antibody, V domains shown)
VH: B1 VH with Y57H, D65Q
VL: B1 VL with P27Q, S32V
[3]
  FXa assay % of FXa alone, 2.5 nM Ab, 10 nM TFPI: 8.5%
  FXa assay % of FXa alone, 5 nM Ab, 10 nM TFPI: 28.3%
  FXa assay % of FXa alone, 10 nM Ab, 10 nM TFPI: 60%
  FXa assay % of FXa alone, 20 nM Ab, 10 nM TFPI: 69.2%
  FXa assay OD, 2.5 nM Ab, 10 nM TFPI: 0.041
  FXa assay OD, 5 nM Ab, 10 nM TFPI: 0.137
  FXa assay OD, 10 nM Ab, 10 nM TFPI: 0.29
  FXa assay OD, 20 nM Ab, 10 nM TFPI: 0.335

B10: clone 4208 (antibody, V domains shown)
VH: B1 VH with P14S, N35S, D65Q
VL: B1 VL with P27Q, S32T
[6]
  FXa assay % of FXa alone, 2.5 nM Ab, 10 nM TFPI: 5%
  FXa assay % of FXa alone, 5 nM Ab, 10 nM TFPI: 6.1%
  FXa assay % of FXa alone, 10 nM Ab, 10 nM TFPI: 12.2%
  FXa assay % of FXa alone, 20 nM Ab, 10 nM TFPI: 53.1%
  FXa assay OD, 2.5 nM Ab, 10 nM TFPI: 0.041
  FXa assay OD, 10 nM Ab, 10 nM TFPI: 0.099
  FXa assay OD, 20 nM Ab, 10 nM TFPI: 0.431
